Measured values as given in US20020065240A1.

Target: VEGF mitogenic receptors
Assay: cell-based or functional assay

half-maximal activity, HUVEC mitogenesis ([3H]thymidine incorporation): 17 to 19 ng/mL
Substance: purified human VEGF165 (R&D Systems, expressed in Sf21 cells) (from UniProt P15692 27-191) (ligand)
